A short description of the data set: soluble on expression in E. coli; label from the status in PepcDB or PDB records.
As for “MGSDKIHHHHHHMPKVLHVADVHLGARPYGLEERRDDIFRSFEFVVETALKDRPDAVLIAGDLFDKPKLPLRDVKQAVELVRALTDAGIPVLAAHGEHDTPSVRDETLLSLMEASLDGFKAPLYRSGMRPGDFVVDLGSLKVAVVPFFKVPLEERRRLTLRFLREFDQISRTSSGTLVLLAHMSLDAEMQFDAVASPSDLPSGAKYAALGHLHAPRIRLDAPTPYAYPGVLDPLKVEEINTPGSPLYVDLSGDAPIIEKVKVPRRPQYRIEVDIGDGGSIYNAVNRGLRRVLANVRASREDWLKPLIHVIIKSDKPISKARVIAEARKAAGGADVLLKIHWKIVAGGEHAGTSPGLQGEGPLDLAKIAAEYYKIPLNAASTILHDLAEAAAEKDELRVREILETLATTVSQDTWKRILYMR”, the “soluble on expression in E. coli” value was “not soluble”.
As to “MGSDKIHHHHHHMLLPNTRLIAAEQLLSPVDAARNRRLADTALTTAKSAGASYCDVRVGRYLRQFVITREAQVENVVNAESSGVGVRVLADGAWGFAATNTLTSDGVATATRQAVAIAKANARLGGTPVQLAPVTPAGQVSWKTPIKKNAMEVPLQDKVALLMDVNAAALNAGATFVASRMFAINEQKYFASSDGSYIDQDVHRLWLPFTVTAVDKASGKFRTRDGLSSPMGMGYEYLDGAAGEKHRLPGGLIGYGRSYDAREDAIAAAKQAREKLTAPSVKAGKYDLVIDPSNLFLTIHESVGHPLELDRVLGYEANYAGTSFATLDKRDAGYRWGSDAVTFVADKTQPGSLGAVGYDDEGVKTKQWDLVKDGILVDYQCTRDQAHLLGKTASDGCSYADSWSNVQFQRMPNVSLAPGRTPLAVADMIKNVERGLYIHGRGSYSIDQQRYNAQFGGQLFYEIENGQVTRLVEDGAYQIRTPEFWNACSAVCDQRDFRLGGSFFDGKGQPSQVSAVSHGSSTARFDGINVINTARSLG”, the “soluble on expression in E. coli” value is on record as “not soluble”.
Under “MSLNPFGNALIPDMIADASIQEINGVFYCYATTDGYGQGLKTSGPPVVWKSKDFVHWSFDGTYFPSAAKEKYWAPSKAIFANGKYYIYPTINGYMYPAVADKPEGPFKLARGKDEFYKPFTPSTLLQSKNPGGIDAEIFVDDDGQAYVFWGRRHVAKLNEDMITVDSVVQVISTPRKEYSEGPIFFKRKGIYYYLYTIGGDEKYQYAYVMSRVSPMGPFEAPEQDIISTTNYERGIFGPGHGCVFHPEGTDNYYFAYLEFGRRSTNRQTYVNQLKFNEDGTIRPVELTMDGVGALKKVKSDKKMKIDTVYASSIEVPLKIEPMKDPTCLRTEYFVPSFAVDGANGSRWMAAAEDSINPWIVADLGTVKKVRRSEIYFVRPTAGHAYVIEASMDGKVWQEFAVHQDRKMCSPHTDVLNKRFRYLRIKILKGVPGIWEWNIYEGHHHHHH” stands “not soluble”.
As to “MERIALFIDGANVYAAAKRLGWNFDHRKILEHFAGLGALYNAFYYTAVPWPVDDKQKRFVDALTYMGYTVRTRPLRENTDENGDTSRRASLDIELVTDLLTTESRYDVAVLLSGDGDFERPVEVLRARGKKVIVASIPEMTSAELRNAADEYVDLASIREQVERPGYRLPSEGSGR”, the “soluble on expression in E. coli” value is on record as “not soluble”.
With “MNVIRTEIEDVLILEPRVFGDDRGFFYESFNQSAFEHILGYPVSFVQDNHSRSSKNVLRGLHFQRGEYAQDKLVRCTHGAVFDVAVDIRPNSVSFGKWVGVLLSADNKQQLWIPKGFAHGFLVLSDIAEFQYKTTNYYHPESDCGICWNDERIAIDWPQTSGLILSPKDERLFTLDELIRLKLIA”, the “soluble on expression in E. coli” value was “not soluble”.
Consider “MLPKAARIPHAMTLHGDTRIDNYYWLRDDTRSQPEVLDYLQQENSYGHRVMASQQALQDRILKEIIDRIPQREVSAPYIKNGYRYRHIYEPGCEYAIYQRQSAFSEEWDEWETLLDANKRAAHSEFYSMGGMAITPDNTIMALAEDFLSRRQYGIRFRNLETGNWYPELLDNVEPSFVWANDSWIFYYVRKHPVTLLPYQVWRHAIGTPASQDKLIYEEKDDTYYVSLHKTTSKHYVVIHLASATTSEVRLLDAEMADAEPFVFLPRRKDHEYSLDHYQHRFYLRSNRHGKNFGLYRTRMRDEQQWEELIPPRENIMLEGFTLFTDWLVVEERQRGLTSLRQINRKTREVIGIAFDDPAYVTWIAYNPEPETARLRYGYSSMTTPDTLFELDMDTGERRVLKQTEVPGFYAANYRSEHLWIVARDGVEVPVSLVYHRKHFRKGHNPLLVYGYGSYGASIDADFSFSRLSLLDRGFVYAIVHVRGGGELGQQWYEDGKFLKKKNTFNDYLDACDALLKLGYGSPSLCYAMGGSAGGMLMGVAINQRPELFHGVIAQVPFVDVVTTMLDESIPLTTGEFEEWGNPQDPQYYEYMKSYSPYDNVTAQAYPHLLVTTGLHDSQVQYWEPAKWVAKLRELKTDDHLLLLCTDMDSGHGGKSGRFKSYEGVAMEYAFLVALAQGTLPATPAD”, for which the “soluble on expression in E. coli” value was “not soluble”.

For the origin of these results see the DeepSol protein solubility set.
